Reference: patent US20240270826A1 (NATIONAL RESEARCH COUNCIL OF CANADA, published 2024)

B1: NRCoV2-03 VHH-Fc (Fc fusion)
chain: EVQLVSSGGGLVQAGGSLRLSCTASGITFSYYAMGWYRQAPGQPRELVASMSNMDSTIYADSVKGRFTISRDNAKTTIYLQMNNLKPEDTAVYFCNIYGPTYSTRRNEYWGQGTQVTVSS
notes: bivalent VHH-Fc
B2: NRCoV2-MRed07 VHH-Fc (Fc fusion)
chain: EVQLVESGGGLVQPGGSLTLSCAASGSIGPFNTMGWYRQAPGNQREPAAIITRGGVTNYADSVKGRFTISRDNAKNAVYLQMDSLKPDDTAVYYCYANYGWAIPYWGNGTQVTVSS
notes: bivalent VHH-Fc
B3: NRCoV2-02 VHH-Fc (Fc fusion)
chain: EVQLVESGGGLVQAGGSLRLSCAASGFTFSNYAMNWVRQAPGKGLEWVSGISGRGDDTRYADSVKGRFTISRDNAKNTLFLQMRSLRPEDTGVYRCTKGPDLYYFGSGYSDRGQGTQVTVSS
notes: bivalent VHH-Fc
B4: NRCoV2-04 VHH-Fc (Fc fusion)
chain: AVQLVDSGGGLVQPGGSLRLSCAASGSPFSNVVMAWYRQAPGKQRERVAFISGGGIADYIMSVKGRFTISRDNAKNTVYLQMNSLKPEDTAVYYCWSSYESTWGQGTQVTVSS
notes: bivalent VHH-Fc
B5: NRCoV2-05 VHH-Fc (Fc fusion)
chain: EVKLVQSGGGLVQPGGSLRLSCAASGFIFSNYAMNWVRQAPGKGLEWVSGINSGGGDTRYADSVKGRFTVSRDNAKNTLYLQMNSLKPEDTGVYYCSKGPVSSYYGSGYDYRGQGTQVTVSS
notes: bivalent VHH-Fc
B6: NRCoV2-06 VHH-Fc (Fc fusion)
chain: EVQLVQSGGGLVQAGESLRLSCAASVSTFSSYAMGWYRQAPGKQRELVASIGFVGATYYIDSVKGRFTISRDNAKKTAYLQMNDLKPDDTAVYYCNARHYGGSEYWGQGTQVTVSS
notes: bivalent VHH-Fc
B7: NRCoV2-14 VHH-Fc (Fc fusion)
chain: EVQLVSSGGGLVQAGGSLRLSCEASGTTFSHYAVGWYRQAPGKQREWVASISVFGSTTYGGSVAGRFTISRDNDKNTVDLQMNSLKPEDTAVYYCHAVNADIGGDYWGQGTQVTVSS
notes: bivalent VHH-Fc
B8: NRCoV2-10 VHH-Fc (Fc fusion)
chain: QLQLQESGGGLVQPGGSLTLSCAASGNTFSRSNMHWYRQAPGAQREWVAAISSRGISTYAYSAKGRFTISRDNAKNTVSLQMNSLKPEDTAVYYCYAADDLGDYWGQGTQVTVSS
notes: bivalent VHH-Fc

biological target: T1, SARS-CoV-2 S2 (aa686-1208) (Wuhan) (SARS-CoV-2 Wuhan, UniProt P0DTC2 686-1208); assay: ELISA
T1 construct: NRC; FLAG, 6xHis tags

Binder	binding result
B1	no binding (tested: 13 nM)
B2	no binding (tested: 13 nM)
B3	no binding (tested: 13 nM)
B4	no binding (tested: 13 nM)
B5	no binding (tested: 13 nM)
B6	no binding (tested: 13 nM)
B7	no binding (tested: 13 nM)
B8	no binding (tested: 13 nM)

biological target: SARS-CoV-2 S1-NTD (aa16-305) (SARS-CoV-2 Wuhan, UniProt P0DTC2 16-305); assay: ELISA

Binder	binding result
B1	no binding (tested: 13 nM)
B3	no binding (tested: 13 nM)
B4	no binding (tested: 13 nM)
B5	no binding (tested: 13 nM)
B6	no binding (tested: 13 nM)
B7	no binding (tested: 13 nM)
B8	no binding (tested: 13 nM)

biological target: SARS-CoV spike (S) (SARS-CoV, UniProt P59594 14-1195); assay: ELISA

Binder	binding result
B1	no binding (tested: 13 nM)
B2	no binding (tested: 13 nM)
B3	no binding (tested: 13 nM)
B4	no binding (tested: 13 nM)
B5	no binding (tested: 13 nM)
B6	no binding (tested: 13 nM)
B7	no binding (tested: 13 nM)
B8	no binding (tested: 13 nM)

biological target: T2, SARS-CoV-2 S on CHO-S cells (SARS-CoV-2, UniProt P0DTC2 14-1273); assay: flow cytometry, CHO-S cells
T2 construct: whole, on cells

Binder	Bmax	EC50 [nM]
B1	16200	78.9
B2	8670	132
B3	18600	0.3
B4	15500	1.3
B5	17400	0.5
B6	13600	8.1
B7	18800	0.9
B8	28000	1.3
